Data: doi:10.1101/2023.02.18.529070 (bioRxiv, 2023)

Molecular target: recombinant human HER3 extracellular domain (human, UniProt P21860 20-643)
Experiment: BLI

recombinant human HER3 extracellular domain, sequence (P21860 20-643): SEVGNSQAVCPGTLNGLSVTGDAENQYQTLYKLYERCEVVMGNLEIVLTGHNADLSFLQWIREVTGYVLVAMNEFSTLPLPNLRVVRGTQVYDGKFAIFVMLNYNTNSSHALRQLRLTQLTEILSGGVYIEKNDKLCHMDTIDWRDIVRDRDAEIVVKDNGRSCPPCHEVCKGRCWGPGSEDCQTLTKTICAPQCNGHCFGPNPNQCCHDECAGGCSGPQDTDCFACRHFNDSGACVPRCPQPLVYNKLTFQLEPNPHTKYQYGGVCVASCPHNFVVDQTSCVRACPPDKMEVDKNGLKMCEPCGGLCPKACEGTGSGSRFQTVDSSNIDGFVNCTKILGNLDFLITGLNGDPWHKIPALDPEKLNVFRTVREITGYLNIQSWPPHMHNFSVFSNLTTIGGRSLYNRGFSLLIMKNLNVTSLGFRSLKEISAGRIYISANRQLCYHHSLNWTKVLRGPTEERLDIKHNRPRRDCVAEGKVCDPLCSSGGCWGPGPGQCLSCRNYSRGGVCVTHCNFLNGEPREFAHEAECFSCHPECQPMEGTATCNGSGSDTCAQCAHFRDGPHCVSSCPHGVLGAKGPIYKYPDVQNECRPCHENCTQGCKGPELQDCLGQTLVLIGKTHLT

Binder | Kd [nM] | fold binding affinity against neuregulin-HER3 [fold] | binding result
recombinant human LRG1 (leucine-rich alpha-2-glycoprotein 1) (ligand, UniProt P02750 36-347, looked up) VTLSPKDCQVFRSDHGSSISCQPPAEIPGYLPADTVHLAVEFFNLTHLPANLLQGASKLQELHLSSNGLESLSPEFLRPVPQLRVLDLTRNALTGLPPGLFQASATLDTLVLKENQLEVLEVSWLHGLKALGHLDLSGNRLRKLPPGLLANFTLLRTLDLGENQLETLPPDLLRGPLQLERLHLEGNKLQVLGKDLLLPQPDLRYLFLNGNKLARVAAGAFQGLRQLDMLDLSNNSLASVPEGLWASLGQPNWDMRDGFDISGNPWICDQNLSDLYRWLQAQKDKMFSQNDTRCAGPEAVKGQTLLAVAKSQ | 100 | > 3 | 
neuregulin-beta1 (Ser 2-Lys 246 N-terminal fragment) (ligand, human, UniProt Q02297-6 2-246, looked up) SERKEGRGKGKGKKKERGSGKKPESAAGSQSPALPPRLKEMKSQESAAGSKLVLRCETSSEYSSLRFKWFKNGNELNRKNKPQNIKIQKKPGKSELRINKASLADSGEYMCKVISKLGNDSASANITIVESNEIITGMPASTEGAYVSSESPIRISVSTEGANTSSSTSTSTTGTSHLVKCAEKEKTFCVNGGECFMVKDLSNPSRYLCKCPNEFTGDRCQNYVMASFYKHLGIEFMEAEELYQK |  |  | binds
